Entries after “also recorded” stand apart in the source; their conditions may differ.
How the values were obtained:
Type in all cases: in vivo, Balb/c mice
4T1 primary tumors = assay: CD45+ immune cells purified from excised 4T1 primary tumors (Example 2); settings: monotherapy (Group 2 docetaxel; Group 5 AB-16B5); primary tumors excised at Day 16
From the text: The primary tumors excised at Day 16 post implantation, were processed with collagenase and hyaluronidase and immune cells were purified by positive selection using magnetic latex beads coated with an anti-CD45 antibody. The purified cells were transferred into small petri dishes containing culture medium supplemented with IL2 and IL7 to perform phenotypic analyses.

[1] = system: 4T1 mouse mammary carcinoma cells; assay: Number of metastatic lung nodules in 4T1-implanted animals (Example 2); settings: monotherapy IP for 5 weeks (Group 2 docetaxel 10 mg/kg weekly; Group 5 AB-16B5 twice weekly); counted Day 37
Protocol: Five groups, each consisting of 10 female Balb/c mice were assigned to this study (see Table 1 below). All animals received subcutaneous implantation of 4T1 mouse mammary carcinoma cells in the 4th inguinal mammary gland. Treatment was initiated on the day of implantation (defined as Day 1). Animals from Group 1 (Gr. 1) received IP treatment of saline vehicle control twice a week for the duration of the study. Animals from Group 2 (Gr. 2) received 10 mg/kg of docetaxel weekly for five weeks by IP administration. Animals from Group 3 (Gr. 3) received 10 mg/kg of docetaxel weekly for two weeks and 10 mg/kg of AB-16B5, twice weekly for five weeks. Animals from Group 4 (Gr. 4) received 10 mg/kg of docetaxel weekly and 5 mg/kg of 16B5 twice weekly each over the course of a five weeks treatment. Animals from Group 5 (Gr. 5) received AB-16B5 twice weekly for five weeks. On Day 36, the primary tumors were excised and on Day 37, the animals were sacrificed and the number of grossly visible metastatic nodules on the surface of the lungs was counted.

4T1 lung metastases = assay: Immunohistochemistry of lung metastases in 4T1-implanted mice (Example 1); settings: 10 mg/kg IP thrice a week
From the text: Balb/c mice were orthotopically implanted with 5×10^5 4T1 cells in the 4th mammary fat pad. Animals received IP saline treatment thrice weekly. The primary tumor was surgically removed at Day 16 post-implantation. The animals were sacrificed at Day 36 and the lungs were excised. Tissues were fixed in paraformaldehyde and processed for paraffin embedding. Tissue sections were probed with anti-mouse CD3, anti-mouse CD8 and anti-mouse B220 antibodies. […] Results presented in FIG. 1 indicate that the 4T1 lung metastases create an immune cold microenvironment which prevents the infiltration of B and T lymphocytes in tumors. Delineated regions indicate that CD3 and CD8 T lymphocytes are restricted in the tumor margin as a consequence of EMT.
Animals bearing 4T1 tumors were treated with the AB-16B5 antibody (murine 16B5) thrice a week IP at 10 mg/kg. The primary tumor was surgically removed at Day 16 post-implantation. The animals were sacrificed at Day 36 and the lungs were excised. Tissues were fixed in paraformaldehyde and processed for paraffin embedding. Tissue sections were probed with anti-mouse CD3, anti-mouse CD8 and anti-mouse B220 antibodies.

In the case of `CC(=O)O[C@@]12CO[C@@H]1C[C@H](O)[C@@]1(C)C(=O)[C@H](O)C3=C(C)[C@@H](OC(=O)[C@H](O)[C@@H](NC(=O)OC(C)(C)C)c4ccccc4)C[C@@](O)([C@@H](OC(=O)c4ccccc4)[C@H]21)C3(C)C` [docetaxel], the “CD45+ immune cells in primary tumors” value (4T1 primary tumors) is reported as “very few CD45+ were present” and the metastatic lung nodules [1] is reported as “as many metastatic lung nodules as the saline control group; also recorded: relatively ineffective”.

B1: AB-16B5: anti-clusterin antibody, murine 16B5 (VL SEQ ID NO:7, VH SEQ ID NO:8), used in the mouse studies (antibody, V domains shown)
VH: EVQLQQSGAELVKPGASVRLSCTTSGFNIKDIYMHWVKQRPEQGLEWIGRIDPAYGNTKYDPKFQGKATITADTSSNTAYLQLSSLTSEDTAVYYCARRYDTAMDYWGQGTSVTVSS
VL: DIVMSQSPSSLAVSAGEKVTMSCKSSQSLLNSRTRKNYLAWYQQKPGQSPKLLIYWASTRESGVPDRFTGSGSGTDFTLTISSVQAEDLAVYYCKQSYNLWTFGGGTKLEFK
modifications: Murine 16B5 VH; Murine 16B5 VL
For B1, the “CD45+ immune cells in primary tumors” value (4T1 primary tumors) was “more immune cells”, the “plasmocytes penetration in tumors” value (4T1 lung metastases; Day 36) was “evidence of plasmocytes penetration” and the “T lymphocyte infiltration of lung metastases” value (4T1 lung metastases; Day 36, anti-CD3, anti-CD8 staining) was “densely infiltrated with CD3 and CD8 T cells”. The “lung metastases (number and size)” value (4T1 lung metastases; lungs excised Day 36, FIG. 2) was “fewer and much smaller lung metastases” and the metastatic lung nodules [1] was “less metastatic lung nodules than the saline-control-treated mice”.

— patent publication US20240207311A1, “TUMOR INFILTRATING LYMPHOCYTES THERAPY” (Alethia Biotherapeutics Inc., priority 2021, published 2024)
